In US10613105 (FRAUNHOFER GESELLSCHAFT ZUR FORDERUNG DER ANGEWANDTEN …, dated 2020):

target: TLR4 receptor complex expressed in the NIH 3T3 pNifty SEAP TLR4/CD14 reporter cell line; assay: cell-based or functional assay
Sequence (O00206 24-839, chain 1 of 2): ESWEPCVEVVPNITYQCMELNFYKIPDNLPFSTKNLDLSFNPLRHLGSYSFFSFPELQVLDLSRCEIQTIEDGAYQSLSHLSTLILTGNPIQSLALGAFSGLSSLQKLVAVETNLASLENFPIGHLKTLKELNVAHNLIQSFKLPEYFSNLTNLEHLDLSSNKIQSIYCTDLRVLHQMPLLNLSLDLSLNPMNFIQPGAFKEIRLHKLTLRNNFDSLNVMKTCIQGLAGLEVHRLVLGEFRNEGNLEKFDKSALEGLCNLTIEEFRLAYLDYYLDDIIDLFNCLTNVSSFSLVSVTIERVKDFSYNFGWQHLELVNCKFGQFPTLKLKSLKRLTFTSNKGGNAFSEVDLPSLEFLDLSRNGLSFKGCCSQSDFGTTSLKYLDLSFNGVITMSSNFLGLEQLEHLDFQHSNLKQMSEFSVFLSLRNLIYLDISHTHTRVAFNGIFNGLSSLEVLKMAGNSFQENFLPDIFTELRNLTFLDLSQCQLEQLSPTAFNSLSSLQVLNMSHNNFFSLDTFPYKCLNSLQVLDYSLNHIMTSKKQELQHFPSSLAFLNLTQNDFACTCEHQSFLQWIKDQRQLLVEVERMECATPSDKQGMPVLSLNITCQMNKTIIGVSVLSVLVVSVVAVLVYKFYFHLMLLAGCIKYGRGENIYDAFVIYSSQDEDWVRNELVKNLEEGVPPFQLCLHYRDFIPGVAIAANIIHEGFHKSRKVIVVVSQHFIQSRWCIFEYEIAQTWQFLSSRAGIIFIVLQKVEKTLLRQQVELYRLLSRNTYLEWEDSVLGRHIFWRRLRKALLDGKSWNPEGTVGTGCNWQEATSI
Sequence (P08571 20-345, chain 2 of 2, further chain): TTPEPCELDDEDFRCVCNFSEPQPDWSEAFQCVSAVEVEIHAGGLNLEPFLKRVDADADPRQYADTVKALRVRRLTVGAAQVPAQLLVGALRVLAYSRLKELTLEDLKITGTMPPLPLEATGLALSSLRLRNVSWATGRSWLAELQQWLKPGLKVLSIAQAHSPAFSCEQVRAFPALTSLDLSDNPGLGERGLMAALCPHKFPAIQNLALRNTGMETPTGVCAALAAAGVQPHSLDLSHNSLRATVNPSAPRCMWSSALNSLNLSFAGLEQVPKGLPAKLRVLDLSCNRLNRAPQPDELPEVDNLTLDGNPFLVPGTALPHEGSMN

Row | Binder | IC50 in the PAMP assay (SEAP reporter, NIH 3T3 pNifty SEAP TLR4/CD14 cells) [mM]
1 | KMQYPISINVNPCIELKGSK [KMQYPISINVNPCIELKGSK peptide (SEQ ID NO: 2)] | > 200
2 | GLLHIFYIPRRDLKQLYFNL [GLLHIFYIPRRDLKQLYFNL peptide (SEQ ID NO: 3)] | > 200

The next lines start with the values.

Row | IC50 in the PAMP assay (SEAP reporter, NIH 3T3 pNifty SEAP TLR4/CD14 cells) [mM] | Binder
3 | > 200 | KRKEVICRGSDDDYSFCRAL [KRKEVICRGSDDDYSFCRAL peptide (SEQ ID NO: 4)]
4 | > 200 | KGETVNTTISFSFKGIKFSK [KGETVNTTISFSFKGIKFSK peptide (SEQ ID NO: 1)]
